From US20130045195

How the values were obtained:
[1] = target: T1, celiac disease relevant peptide LGQQQPFPPQQPYPQPQPF
T1 chain: LGQQQPFPPQQPYPQPQPF

[2] = target: T2, celiac disease relevant peptide PQQPQQSFPQQQPPF
T2 chain: PQQPQQSFPQQQPPF

[3] = target: T3, celiac disease relevant peptide QLPQQPQQF
T3 chain: QLPQQPQQF

Measured: degradation of peptide analyzed by reverse phase liquid chromatography (50 µg/mL peptide, 25 µg/mL enzyme, 37 °C, pH 4.5, 1 hr)

B1: XP-972061 (proline specific protease, LOC660762, similar to prolylcarboxypeptidase / thymus-specific serine protease) (protein)
chain: RIFRNGRMVGGNLGEPKCNCKESSIKEVQEEWFTQNLDHFNPTDETTWKQRFYSNDQFFDPKNGGPVFLMIGGEGEASIKWMTQGAWVNYAEKFGALMFQLEHRYYGKSHPTDDLSTQNLKYLTSQQALADLATFITAMNEKYSLPPDVKWIAFGGSYPGSLAAWLRFKYPHLVHGAMSASGPLLAQVDFKDYFRVIKESLATHSDDCVTAVQQGVDQIGVLLKQEIGQANLNELFKLCDPVQNSINNEKDISNLYETIADDFAGVVQYNKDNRVGSPAGANITIDVVCDIMVNQTIGPPVNRLAKVNEVLLSAYDQKCLDYNYDKMINNLRNVSWDSEASEGGRQWTYQTCTEFGFYQTSDYEPQIFGDQFSVDFFIQQCTDIFGSIYDEDFLNSATERTNTYYGGLDIEVSNVVFVHGSIDPWHALGITKTIDEEAPAIYIEGTAHCANMYPPADTDLPQLKEAREQILNLIGTWLAQ
completely proteolyzed: all assays above
